According to patent publication US20160200782A1:
Values belong to the substance of their own block, whether it stands above or below them.

Assays:
Test in all cases: cell-based or functional assay
AMPKa1(h) (human) = AMPKa1(h) (human) (UniProt Q13131)
AMPKa2(h) (human) = AMPKa2(h) (human) (UniProt P54646)
BTK(R28H)(h) (human) = BTK(R28H)(h) (human) (UniProt Q06187)
CHK2(h) (human) = CHK2(h) (human) (UniProt O96017)
CK1γ1(h) (human) = CK1γ1(h) (human) (UniProt Q9HCP0)
CK1γ2(h) (human) = CK1γ2(h) (human) (UniProt P78368)
CK1γ3(h) (human) = CK1γ3(h) (human) (UniProt Q9Y6M4)
CK2α2(h) (human) = CK2α2(h) (human) (UniProt P19784)
CLK2(h) (human) = CLK2(h) (human) (UniProt P49760)
CaMKIδ(h) (human) = CaMKIδ(h) (human) (UniProt Q8IU85)
Sequence of CaMKIδ(h) (human) (Q8IU85 whole entry, stated change not applied): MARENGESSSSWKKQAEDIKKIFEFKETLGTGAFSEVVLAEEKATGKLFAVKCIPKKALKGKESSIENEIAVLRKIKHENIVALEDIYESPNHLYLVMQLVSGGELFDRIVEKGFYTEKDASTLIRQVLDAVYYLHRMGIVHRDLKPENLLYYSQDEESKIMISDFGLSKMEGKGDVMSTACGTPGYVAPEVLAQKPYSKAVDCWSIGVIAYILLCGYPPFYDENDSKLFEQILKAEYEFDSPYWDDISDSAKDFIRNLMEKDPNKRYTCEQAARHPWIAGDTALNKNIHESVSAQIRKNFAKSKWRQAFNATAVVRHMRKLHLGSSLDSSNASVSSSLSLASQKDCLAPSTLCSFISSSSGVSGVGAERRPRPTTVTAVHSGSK

EphA2(h) (human) = EphA2(h) (human) (UniProt P29317)
EphA4(h) (human) = EphA4(h) (human) (UniProt P54764)
Sequence of EphA4(h) (human) (P54764 570-986 limits assumed): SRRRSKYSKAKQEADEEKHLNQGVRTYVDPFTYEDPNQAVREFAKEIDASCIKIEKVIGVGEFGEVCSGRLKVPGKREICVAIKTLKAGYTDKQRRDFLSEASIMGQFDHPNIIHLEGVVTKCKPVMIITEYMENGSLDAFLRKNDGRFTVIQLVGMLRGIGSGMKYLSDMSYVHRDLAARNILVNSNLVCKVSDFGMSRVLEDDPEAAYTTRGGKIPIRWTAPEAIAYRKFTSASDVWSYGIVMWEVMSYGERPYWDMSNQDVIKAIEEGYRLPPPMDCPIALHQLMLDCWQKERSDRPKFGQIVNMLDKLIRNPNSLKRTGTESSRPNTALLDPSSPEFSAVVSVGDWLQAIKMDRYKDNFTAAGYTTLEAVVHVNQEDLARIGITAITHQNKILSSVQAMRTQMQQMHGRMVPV

FGFR1(V561M)(h) (human) = FGFR1(V561M)(h) (human) (UniProt P11362)
FGFR1(h) (human) = FGFR1(h) (human) (UniProt P11362)
FGFR2(N549H)(h) (human) = FGFR2(N549H)(h) (human) (UniProt P21802)
Fgr(h) (human) = Fgr(h) (human) (UniProt P09769)
Flt1(h) (human) = Flt1(h) (human) (UniProt P17948)
Fms(Y969C)(h) (human) = Fms(Y969C)(h) (human) (UniProt P07333)
GRK5(h) (human) = GRK5(h) (human) (UniProt P34947)
HIPK1(h) (human) = HIPK1(h) (human) (UniProt Q86Z02)
IGF-1R(h) (human) = IGF-1R(h) (human) (UniProt P08069)
IKKα(h) (human) = IKKα(h) (human) (UniProt O15111)
Sequence of IKKα(h) (human) (O15111 whole entry): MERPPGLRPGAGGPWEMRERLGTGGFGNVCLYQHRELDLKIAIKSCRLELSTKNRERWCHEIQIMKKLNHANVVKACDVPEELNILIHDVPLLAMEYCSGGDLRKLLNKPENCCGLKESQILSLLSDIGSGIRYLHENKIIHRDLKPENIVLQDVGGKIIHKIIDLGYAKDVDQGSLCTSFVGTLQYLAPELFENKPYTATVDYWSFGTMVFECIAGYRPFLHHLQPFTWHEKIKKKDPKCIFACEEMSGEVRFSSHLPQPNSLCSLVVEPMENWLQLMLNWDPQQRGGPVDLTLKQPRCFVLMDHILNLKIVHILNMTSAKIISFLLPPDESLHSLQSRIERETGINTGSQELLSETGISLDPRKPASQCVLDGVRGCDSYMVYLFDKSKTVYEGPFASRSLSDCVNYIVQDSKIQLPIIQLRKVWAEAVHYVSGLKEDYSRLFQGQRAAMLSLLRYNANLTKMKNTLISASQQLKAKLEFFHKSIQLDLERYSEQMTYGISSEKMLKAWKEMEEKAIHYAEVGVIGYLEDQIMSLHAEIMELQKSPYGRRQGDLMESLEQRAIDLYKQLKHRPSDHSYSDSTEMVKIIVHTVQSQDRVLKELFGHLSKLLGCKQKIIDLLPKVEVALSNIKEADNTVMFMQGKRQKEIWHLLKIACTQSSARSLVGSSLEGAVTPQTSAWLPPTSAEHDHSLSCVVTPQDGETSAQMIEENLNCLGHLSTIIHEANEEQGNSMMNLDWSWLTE

IR(h), activated (human) = IR(h), activated (human) (UniProt P06213)
Sequence of IR(h), activated (human) (P06213 1005-1310 limits assumed): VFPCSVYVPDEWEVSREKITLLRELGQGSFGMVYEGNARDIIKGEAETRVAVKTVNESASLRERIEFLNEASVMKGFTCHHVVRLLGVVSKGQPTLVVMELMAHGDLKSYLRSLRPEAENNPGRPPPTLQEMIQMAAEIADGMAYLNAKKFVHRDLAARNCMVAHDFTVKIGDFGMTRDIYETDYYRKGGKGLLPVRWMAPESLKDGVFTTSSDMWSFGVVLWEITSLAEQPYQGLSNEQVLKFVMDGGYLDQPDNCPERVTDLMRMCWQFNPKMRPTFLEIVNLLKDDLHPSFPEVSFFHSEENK

JNK1α1(h) (human) = JNK1α1(h) (human) (UniProt P45983)
JNK2α2(h) (human) = JNK2α2(h) (human) (UniProt P45984)
Lck(h) activated (human) = Lck(h) activated (human) (UniProt P06239)
Sequence of Lck(h) activated (human) (P06239 whole entry): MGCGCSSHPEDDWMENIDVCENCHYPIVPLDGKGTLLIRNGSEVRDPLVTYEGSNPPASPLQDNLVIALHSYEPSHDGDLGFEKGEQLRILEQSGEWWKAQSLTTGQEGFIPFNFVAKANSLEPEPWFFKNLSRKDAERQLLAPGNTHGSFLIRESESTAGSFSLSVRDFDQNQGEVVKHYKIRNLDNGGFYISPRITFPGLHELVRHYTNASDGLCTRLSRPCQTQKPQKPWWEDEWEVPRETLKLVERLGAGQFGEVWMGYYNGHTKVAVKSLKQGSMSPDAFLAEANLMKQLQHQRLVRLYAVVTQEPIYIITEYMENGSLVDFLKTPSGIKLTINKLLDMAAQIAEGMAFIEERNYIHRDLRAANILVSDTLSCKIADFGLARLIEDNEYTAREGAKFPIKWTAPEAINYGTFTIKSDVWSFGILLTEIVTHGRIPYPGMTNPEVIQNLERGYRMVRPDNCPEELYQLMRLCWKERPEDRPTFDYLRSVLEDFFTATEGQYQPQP

MAPK1(h) (human) = MAPK1(h) (human) (UniProt P28482)
MKK7β(h) (human) = MKK7β(h) (human) (UniProt O14733)
MST1(h) (human) = MST1(h) (human) (UniProt Q13043)
Sequence of MST1(h) (human) (Q13043 whole entry): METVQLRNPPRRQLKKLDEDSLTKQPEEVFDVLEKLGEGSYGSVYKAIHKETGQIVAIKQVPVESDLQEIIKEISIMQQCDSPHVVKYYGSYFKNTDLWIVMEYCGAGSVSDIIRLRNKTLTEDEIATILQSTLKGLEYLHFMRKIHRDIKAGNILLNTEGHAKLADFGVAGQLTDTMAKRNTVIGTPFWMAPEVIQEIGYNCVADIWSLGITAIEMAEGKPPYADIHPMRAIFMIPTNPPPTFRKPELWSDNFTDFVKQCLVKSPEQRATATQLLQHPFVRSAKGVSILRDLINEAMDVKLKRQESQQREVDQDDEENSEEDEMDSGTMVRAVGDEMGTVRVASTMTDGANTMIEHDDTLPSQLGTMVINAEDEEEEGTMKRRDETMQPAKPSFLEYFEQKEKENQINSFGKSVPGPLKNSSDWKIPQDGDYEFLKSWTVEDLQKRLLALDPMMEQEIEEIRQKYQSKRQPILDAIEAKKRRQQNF

PAK6(h) (human) = PAK6(h) (human) (UniProt Q9NQU5)
PASK(h) (human) = PASK(h) (human) (UniProt Q96RG2)
Sequence of PASK(h) (human) (Q96RG2 879-1323 limits assumed): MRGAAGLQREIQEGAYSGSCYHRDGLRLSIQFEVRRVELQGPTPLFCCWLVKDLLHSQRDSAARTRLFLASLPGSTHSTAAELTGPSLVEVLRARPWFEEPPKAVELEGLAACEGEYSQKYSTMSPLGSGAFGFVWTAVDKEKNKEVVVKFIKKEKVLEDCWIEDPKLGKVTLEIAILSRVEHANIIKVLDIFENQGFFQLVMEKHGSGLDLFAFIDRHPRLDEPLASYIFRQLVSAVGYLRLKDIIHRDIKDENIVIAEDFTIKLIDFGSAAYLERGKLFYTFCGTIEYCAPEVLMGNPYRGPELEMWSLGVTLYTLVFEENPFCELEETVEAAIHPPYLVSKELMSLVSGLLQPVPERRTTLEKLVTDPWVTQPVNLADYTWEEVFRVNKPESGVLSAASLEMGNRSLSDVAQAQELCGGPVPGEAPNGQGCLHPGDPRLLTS

PKBβ(h) (human) = PKBβ(h) (human) (UniProt P31751)
Plk1(h) (human) = Plk1(h) (human) (UniProt P53350)
Pyk2(h) (human) = Pyk2(h) (human) (UniProt Q14289)
Rse(h) (human) = Rse(h) (human) (UniProt Q06418)
TAK1(h) (human) = TAK1(h) (human) (UniProt O43318)
Tie2(R849W)(h) (human) = Tie2(R849W)(h) (human) (UniProt Q02763)
TrkA(h) (human) = TrkA(h) (human) (UniProt P04629)
ULK3(h) (human) = ULK3(h) (human) (UniProt Q6PHR2)
Sequence of ULK3(h) (human) (Q6PHR2 whole entry): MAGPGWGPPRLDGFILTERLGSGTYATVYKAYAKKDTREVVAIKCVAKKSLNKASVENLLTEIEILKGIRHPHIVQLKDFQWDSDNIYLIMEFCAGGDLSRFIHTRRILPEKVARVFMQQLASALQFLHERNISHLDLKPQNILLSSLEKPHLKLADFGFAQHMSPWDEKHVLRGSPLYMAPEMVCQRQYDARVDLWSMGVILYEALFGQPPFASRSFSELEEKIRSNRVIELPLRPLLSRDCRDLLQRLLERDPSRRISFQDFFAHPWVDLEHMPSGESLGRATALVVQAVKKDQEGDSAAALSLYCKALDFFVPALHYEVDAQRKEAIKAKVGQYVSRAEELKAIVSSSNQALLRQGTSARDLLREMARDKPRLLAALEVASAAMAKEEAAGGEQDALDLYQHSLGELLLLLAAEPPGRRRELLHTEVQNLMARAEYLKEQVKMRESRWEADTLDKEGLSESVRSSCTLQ

Yes(h) (human) = Yes(h) (human) (UniProt P07947)
mTOR(h) (human) = mTOR(h) (human) (UniProt P42345)
Sequence of mTOR(h) (human) (P42345 1362-2549 limits assumed): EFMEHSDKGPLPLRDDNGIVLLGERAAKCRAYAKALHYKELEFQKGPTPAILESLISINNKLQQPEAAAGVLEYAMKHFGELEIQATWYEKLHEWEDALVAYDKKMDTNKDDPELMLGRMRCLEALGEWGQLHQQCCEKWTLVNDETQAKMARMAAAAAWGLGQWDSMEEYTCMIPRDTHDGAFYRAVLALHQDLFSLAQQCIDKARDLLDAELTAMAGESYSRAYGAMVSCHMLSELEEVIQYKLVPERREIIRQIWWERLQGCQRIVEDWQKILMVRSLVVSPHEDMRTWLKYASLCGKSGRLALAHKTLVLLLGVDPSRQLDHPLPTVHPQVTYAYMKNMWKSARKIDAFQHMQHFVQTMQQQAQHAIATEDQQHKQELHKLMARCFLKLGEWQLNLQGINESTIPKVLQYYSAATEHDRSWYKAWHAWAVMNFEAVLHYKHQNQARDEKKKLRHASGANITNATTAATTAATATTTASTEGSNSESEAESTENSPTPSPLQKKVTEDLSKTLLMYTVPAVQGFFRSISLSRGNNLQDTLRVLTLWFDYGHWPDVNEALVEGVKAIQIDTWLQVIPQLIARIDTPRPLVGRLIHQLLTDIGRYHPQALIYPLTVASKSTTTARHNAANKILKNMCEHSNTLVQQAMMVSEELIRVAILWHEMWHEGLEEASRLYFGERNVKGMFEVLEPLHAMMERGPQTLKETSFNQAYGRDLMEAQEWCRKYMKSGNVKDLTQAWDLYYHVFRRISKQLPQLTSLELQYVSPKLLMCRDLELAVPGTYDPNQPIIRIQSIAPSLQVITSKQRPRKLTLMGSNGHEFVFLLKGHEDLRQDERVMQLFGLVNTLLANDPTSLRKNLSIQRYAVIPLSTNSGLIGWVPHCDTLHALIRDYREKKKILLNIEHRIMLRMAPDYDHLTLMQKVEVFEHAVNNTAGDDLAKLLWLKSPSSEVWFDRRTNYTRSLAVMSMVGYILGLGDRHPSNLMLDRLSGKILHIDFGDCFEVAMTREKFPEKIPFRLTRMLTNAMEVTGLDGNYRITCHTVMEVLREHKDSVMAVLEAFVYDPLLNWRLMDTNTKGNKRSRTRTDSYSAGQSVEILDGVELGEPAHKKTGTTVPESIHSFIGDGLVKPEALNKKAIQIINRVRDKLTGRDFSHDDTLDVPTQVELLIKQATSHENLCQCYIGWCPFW

PAK3(h) (human) = PAK3(h) (human) (UniProt O75914)

Substance: MMI-0100 (peptide)
% activity (AMPKa1(h) (human)): 107%
% activity (AMPKa2(h) (human)): 121%
% activity (BTK(R28H)(h) (human)): 91%
% activity (CHK2(h) (human)): 104%
% activity (CK1γ1(h) (human)): 110%
% activity (CK1γ2(h) (human)): 119%
% activity (CK1γ3(h) (human)): 105%
% activity (CK2α2(h) (human)): 104%
% activity (CLK2(h) (human)): 88%
% activity (CaMKIδ(h) (human)): 59%
% activity (EphA2(h) (human)): 58%
% activity (EphA4(h) (human)): 110%
% activity (FGFR1(V561M)(h) (human)): 108%
% activity (FGFR1(h) (human)): 120%
% activity (FGFR2(N549H)(h) (human)): 95%
% activity (Fgr(h) (human)): 54%
% activity (Flt1(h) (human)): 109%
% activity (Fms(Y969C)(h) (human)): 126%
% activity (GRK5(h) (human)): 117%
% activity (HIPK1(h) (human)): 94%
% activity (IGF-1R(h) (human)): 102%
% activity (IKKα(h) (human)): 108%
% activity (IR(h), activated (human)): 127%
% activity (JNK1α1(h) (human)): 91%
% activity (JNK2α2(h) (human)): 114%
% activity (Lck(h) activated (human)): 106%
% activity (MAPK1(h) (human)): 108%
% activity (MKK7β(h) (human)): 137%
% activity (MST1(h) (human)): 85%
% activity (PAK6(h) (human)): 121%
% activity (PASK(h) (human)): 81%
% activity (PKBβ(h) (human)): 284%
% activity (Plk1(h) (human)): 109%
% activity (Pyk2(h) (human)): 113%
% activity (Rse(h) (human)): 109%
% activity (TAK1(h) (human)): 116%
% activity (Tie2(R849W)(h) (human)): 102%
% activity (TrkA(h) (human)): 74%
% activity (ULK3(h) (human)): 142%
% activity (Yes(h) (human)): 49%
% activity (mTOR(h) (human)): 102%

Substance: MMI-0200 (peptide)
% activity (AMPKa1(h) (human)): 108%
% activity (AMPKa2(h) (human)): 88%
% activity (BTK(R28H)(h) (human)): 104%
% activity (CHK2(h) (human)): 105%
% activity (CK1γ1(h) (human)): 98%
% activity (CK1γ2(h) (human)): 104%
% activity (CK1γ3(h) (human)): 96%
% activity (CK2α2(h) (human)): 88%
% activity (CLK2(h) (human)): 97%
% activity (CaMKIδ(h) (human)): 47%
% activity (EphA2(h) (human)): 95%
% activity (EphA4(h) (human)): 127%
% activity (FGFR1(V561M)(h) (human)): 72%
% activity (FGFR1(h) (human)): 97%
% activity (FGFR2(N549H)(h) (human)): 104%
% activity (Fgr(h) (human)): 71%
% activity (Flt1(h) (human)): 96%
% activity (Fms(Y969C)(h) (human)): 88%
% activity (GRK5(h) (human)): 135%
% activity (HIPK1(h) (human)): 115%
% activity (IGF-1R(h) (human)): 49%
% activity (IKKα(h) (human)): 104%
% activity (IR(h), activated (human)): 105%
% activity (JNK1α1(h) (human)): 106%
% activity (JNK2α2(h) (human)): 109%
% activity (Lck(h) activated (human)): 90%
% activity (MAPK1(h) (human)): 97%
% activity (MKK7β(h) (human)): 117%
% activity (MST1(h) (human)): 72%
% activity (PAK3(h) (human)): 50%
% activity (PAK6(h) (human)): 105%
% activity (PASK(h) (human)): 60%
% activity (PKBβ(h) (human)): 250%
% activity (Plk1(h) (human)): 128%
% activity (Pyk2(h) (human)): 127%
% activity (Rse(h) (human)): 88%
% activity (TAK1(h) (human)): 124%
% activity (Tie2(R849W)(h) (human)): 89%
% activity (ULK3(h) (human)): 164%
% activity (Yes(h) (human)): 93%
% activity (mTOR(h) (human)): 110%

% activity (AMPKa1(h) (human)): 35%
% activity (AMPKa2(h) (human)): 9%
% activity (BTK(R28H)(h) (human)): 10%
% activity (CHK2(h) (human)): 13%
% activity (CaMKIδ(h) (human)): 0%
% activity (EphA4(h) (human)): 48%
% activity (FGFR1(h) (human)): 18%
% activity (Flt1(h) (human)): 27%
% activity (HIPK1(h) (human)): 47%
% activity (IKKα(h) (human)): 50%
% activity (IR(h), activated (human)): 90%
% activity (JNK2α2(h) (human)): 81%
% activity (Lck(h) activated (human)): 76%
% activity (MST1(h) (human)): 3%
% activity (PASK(h) (human)): 9%
% activity (PKBβ(h) (human)): 21%
% activity (Pyk2(h) (human)): 46%
% activity (Rse(h) (human)): 63%
% activity (TrkA(h) (human)): 24%
% activity (ULK3(h) (human)): 177%
% activity (mTOR(h) (human)): 135%
Substance: MMI-0500 (peptide)
